# From the supplement of paper PMC7877785
# ± gives the uncertainty stated by the source.
# Experiment: self-splicing fitness, log relative to wild type (ln ratio); higher = more splicing; Tetrahymena group I intron in knt gene, E. coli kanamycin selection, DiMSum; sequences stand for … in CUCUCU…GGAGGGAAAAGUUAUCAGGCAUGCACCUGGUAGCUAGUCUUUAAACCAAUAGAUUGCAUCGGUUUAAAAGGCAAGACCGUCAAAUUGCGGGAAAGGGGUCAACAGCCGUUCAGUACCAAGUCUCAGGGGAAACUUUGAGAUGGCCUUGCAAAGGGUAUGGUAAUAAGCUGACGGACAUGGUCCUAACCACGCAGCCAAGUCCUAAGUCAACAGAUCUUCUGUUGAUAUGGAUGCAGUUCACAGACUAAAUGUCGGUCGGGGAAGAUGUAUUCUUCUCAUAAGAUAUAGUCGGACCUCUCCUUAAUGGGAGCUAGCGGAUGAAGUGAUGCAACACUGGAGCCGCUGGGAACUAAUUUGUAUGCGAAAGUAUAUUGAUUAGUUUUGGAGUACUCGUGGUCG
# Procedure, shortened: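 Library with all eight P1ex-region intron nucleotides randomised, intron inside the knt kanamycin-resistance gene on pET-22b(+), in E. coli BL21(DE3). Cells grew overnight at 37°C or 30°C on LB agar with or without 25 μg/mL kanamycin (plus 100 μg/mL carbenicillin, 50 μM IPTG, 0.2% rhamnose), in six replicate transformations. Pooled colonies were amplicon-sequenced on Illumina HiSeq 2500. DiMSum fitness is the error-weighted combination of wild-type-normalised replicate fold changes, kanamycin versus none.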
Sequence,self-splicing fitness (ln) (30 °C),self-splicing fitness (ln) (37 °C)
CAGGAGCAAUAUUACGCCGA,-1.75 ± 0.4,–
AUCAAGCAAUAUUACGCAGC,-2.12 ± 0.2,-1.8 ± 0.25
AAGAAGCAAUAUUACGGAGC,-3.35 ± 0.24,-2.66 ± 0.23
CCCAAGCAAUAUUACGCGCG,-3.78 ± 0.23,-2.24 ± 0.21
UUAAAGCAAUAUUACGGUGU,-2.73 ± 0.11,-1.29 ± 0.1
AUAUAGCAAUAUUACGGUCA,-1.16 ± 0.23,-0.947 ± 0.19
ACAGAGCAAUAUUACGUGAU,-2.97 ± 0.1,-2.08 ± 0.15
UGAUAGCAAUAUUACGAUGA,-0.925 ± 0.15,-0.791 ± 0.12
CACCAGCAAUAUUACGCGCG,-0.00123 ± 0.053,0.499 ± 0.069
CAGAAGCAAUAUUACGCAGA,-2.59 ± 0.22,-2.55 ± 0.28
UCUUAGCAAUAUUACGUCAG,-1.01 ± 0.16,-1.28 ± 0.2
AUACAGCAAUAUUACGGGUC,-3.7 ± 0.21,-2.48 ± 0.19
AGGUAGCAAUAUUACGAGGG,-3.972 ± 0.031,-3.2 ± 0.042
UAGCAGCAAUAUUACGUCUU,-1.07 ± 0.071,-0.289 ± 0.085
AGAGAGCAAUAUUACGGUCU,-3.2 ± 0.15,-2.71 ± 0.29
UCAUAGCAAUAUUACGAGUA,-3.06 ± 0.23,0.0724 ± 0.12
AAUGAGCAAUAUUACGCUAA,-3.1 ± 0.36,-1.9 ± 0.2
UAUGAGCAAUAUUACGCUAG,-3.34 ± 0.41,–
UCGUAGCAAUAUUACGUCUU,-2.7 ± 0.15,-0.44 ± 0.14
AAGCAGCAAUAUUACGUUCU,-0.454 ± 0.056,0.0556 ± 0.076
ACUGAGCAAUAUUACGGUAG,-3.12 ± 0.18,-1.03 ± 0.21
GAUCAGCAAUAUUACGUACG,-1.5 ± 0.14,-0.586 ± 0.14
AGACAGCAAUAUUACGCGCG,-0.587 ± 0.074,0.222 ± 0.096
UACGAGCAAUAUUACGAUGC,–,-2.04 ± 0.33
UUUAAGCAAUAUUACGACCG,-0.889 ± 0.18,0.563 ± 0.26

Sequence,self-splicing fitness (ln) (30 °C),self-splicing fitness (ln) (37 °C)
UAGGAGCAAUAUUACGUUAU,-4.64 ± 0.22,-2.85 ± 0.15
ACAGAGCAAUAUUACGUACG,-3.9 ± 0.23,-2.3 ± 0.2
CGGAAGCAAUAUUACGAGAG,-3.45 ± 0.49,-1.65 ± 0.26
UGCAAGCAAUAUUACGAGCA,-2.28 ± 0.15,-1.39 ± 0.12
ACUCAGCAAUAUUACGACAA,-0.977 ± 0.27,-1.18 ± 0.24
GUGAAGCAAUAUUACGGCGC,-0.501 ± 0.17,-0.89 ± 0.14
GAUAAGCAAUAUUACGGCGU,0.319 ± 0.077,0.486 ± 0.1
AUAGAGCAAUAUUACGCGUC,-1.8 ± 0.39,-1.82 ± 0.26
CGUGAGCAAUAUUACGUUAA,-4 ± 0.31,-3.55 ± 0.3
AGAAAGCAAUAUUACGGCAU,-0.587 ± 0.051,-0.525 ± 0.064
CUGAAGCAAUAUUACGGACG,0.0263 ± 0.084,0.166 ± 0.1
AAGAAGCAAUAUUACGUAUU,-2.28 ± 0.16,-1.43 ± 0.12
CUCUAGCAAUAUUACGCAAU,–,-3.09 ± 0.38
ACAUAGCAAUAUUACGUCCC,-1.71 ± 0.15,-0.222 ± 0.23
CCCUAGCAAUAUUACGUUCA,-3.05 ± 0.19,-2.7 ± 0.2
GACCAGCAAUAUUACGUCGU,-0.568 ± 0.052,-0.218 ± 0.069
CAAAAGCAAUAUUACGUGCC,-2.99 ± 0.24,-1.41 ± 0.23
ACCUAGCAAUAUUACGUCGG,-1.07 ± 0.078,-1.11 ± 0.11
GGCAAGCAAUAUUACGUAUG,-2 ± 0.092,-1.74 ± 0.1
CGACAGCAAUAUUACGUUCU,-0.971 ± 0.05,-0.0323 ± 0.07
CACGAGCAAUAUUACGGCAC,-2.97 ± 0.23,-2.43 ± 0.25
CCACAGCAAUAUUACGUCGC,-3.63 ± 0.17,-3.36 ± 0.22
UUGCAGCAAUAUUACGCGUA,-0.889 ± 0.13,-0.457 ± 0.11
CAAUAGCAAUAUUACGGGCU,-3.42 ± 0.16,-1.4 ± 0.12
AGUAAGCAAUAUUACGAACU,-2.43 ± 0.19,-0.813 ± 0.15

Sequence,self-splicing fitness (ln) (30 °C),self-splicing fitness (ln) (37 °C)
GGCGAGCAAUAUUACGGUCU,-1.89 ± 0.2,-1.03 ± 0.21
CAACAGCAAUAUUACGUCCU,-2.08 ± 0.071,-1.6 ± 0.094
GUGGAGCAAUAUUACGUUGG,-3.39 ± 0.28,-3.36 ± 0.43
UUCAAGCAAUAUUACGCGUA,-1.17 ± 0.14,-0.0781 ± 0.1
AGUGAGCAAUAUUACGGCCC,-1.16 ± 0.39,–
AUGGAGCAAUAUUACGCCUG,-2.34 ± 0.27,-2.3 ± 0.28
GCAUAGCAAUAUUACGAGCA,-1.39 ± 0.23,-0.718 ± 0.2
UGCCAGCAAUAUUACGUCUG,-2.57 ± 0.15,-1.48 ± 0.16
GGGCAGCAAUAUUACGCUGU,-2.65 ± 0.29,-1.21 ± 0.21
GUCAAGCAAUAUUACGCCGA,-3.33 ± 0.45,-1.08 ± 0.18
GCCUAGCAAUAUUACGGGAA,-0.327 ± 0.091,0.158 ± 0.11
AGCGAGCAAUAUUACGAACU,-2.3 ± 0.42,-1.17 ± 0.29
UUAAAGCAAUAUUACGCCUA,0.0988 ± 0.091,0.8 ± 0.14
AGCAAGCAAUAUUACGUGGA,-2.85 ± 0.15,-1.85 ± 0.12
ACCUAGCAAUAUUACGAUGG,-3.01 ± 0.17,-0.981 ± 0.18
ACCCAGCAAUAUUACGGUAU,-0.563 ± 0.047,-0.154 ± 0.068
GCGAAGCAAUAUUACGUCAG,-3.41 ± 0.2,-2.52 ± 0.26
UAUGAGCAAUAUUACGAGGG,-3.93 ± 0.42,-2.66 ± 0.29
GCAGAGCAAUAUUACGCGAC,–,-2.27 ± 0.36
UCUUAGCAAUAUUACGGACA,-2.63 ± 0.2,-1.19 ± 0.14
ACUAAGCAAUAUUACGGGUU,-3.17 ± 0.16,-2.34 ± 0.23
CACAAGCAAUAUUACGAACC,-2.66 ± 0.47,-1.98 ± 0.36
AGGUAGCAAUAUUACGUUUC,-3.528 ± 0.026,-2.18 ± 0.039
GUAUAGCAAUAUUACGAUUA,-1.14 ± 0.16,-1.4 ± 0.15
UAUUAGCAAUAUUACGACUU,-0.468 ± 0.13,-0.537 ± 0.14

Sequence,self-splicing fitness (ln) (30 °C),self-splicing fitness (ln) (37 °C)
GUACAGCAAUAUUACGUAUG,-2.52 ± 0.086,-1.45 ± 0.091
AAAAAGCAAUAUUACGAUCA,-0.00996 ± 0.084,-0.0134 ± 0.094
CUCAAGCAAUAUUACGGAAG,-1.84 ± 0.11,-0.365 ± 0.12
GAACAGCAAUAUUACGAUCG,-0.614 ± 0.085,-0.564 ± 0.11
UCCGAGCAAUAUUACGGACA,-2.33 ± 0.18,-0.762 ± 0.13
AGAAAGCAAUAUUACGUUUU,-3.84 ± 0.17,-3.06 ± 0.2
GUACAGCAAUAUUACGAAGA,-2.52 ± 0.32,-1.83 ± 0.28
GAUUAGCAAUAUUACGCACC,-1.5 ± 0.081,-0.681 ± 0.084
ACUAAGCAAUAUUACGGCAU,-0.539 ± 0.062,-0.563 ± 0.09
CAGAAGCAAUAUUACGCUCU,-4.2 ± 0.24,-2.41 ± 0.17
AAGGAGCAAUAUUACGGUAG,-3.82 ± 0.29,-2.75 ± 0.26
GCCAAGCAAUAUUACGACGC,-0.669 ± 0.11,0.3 ± 0.14
CGAAAGCAAUAUUACGCUCC,-1.14 ± 0.18,-1.11 ± 0.21
GGGAAGCAAUAUUACGAGCU,-0.998 ± 0.29,-0.3 ± 0.36
CCGUAGCAAUAUUACGCGAG,-3.82 ± 0.24,-2.76 ± 0.32
AUUUAGCAAUAUUACGGGAU,-1.42 ± 0.11,-0.217 ± 0.14
ACUAAGCAAUAUUACGGAAC,-3.33 ± 0.29,-2.77 ± 0.32
UUAAAGCAAUAUUACGUGAC,-1.93 ± 0.15,-1.91 ± 0.18
ACCCAGCAAUAUUACGGUCC,-1.61 ± 0.085,-1.4 ± 0.12
UAUCAGCAAUAUUACGCCAA,-1.34 ± 0.19,-0.351 ± 0.2
CCCAAGCAAUAUUACGAGGA,-1.42 ± 0.078,-0.592 ± 0.074
CACCAGCAAUAUUACGCACU,-3.96 ± 0.21,-1.59 ± 0.12
